Test results taken from PMC9119680.

How the values were obtained:
Experiment in all cases: Co-IP with immunoblot quantification
PALLIDIN = PALLIDIN (UniProt Q9R0C0); details: uninfected cells cultured overnight; IP: BLOS1; parent: est. 100; read off a plot
SNAPIN = SNAPIN (UniProt Q9Z266); details: read off a plot
BLOS2 = BLOS2 (UniProt Q9CWG9); details: uninfected cells cultured overnight; IP: BLOS1; parent: est. 100; read off a plot
KXD1 = KXD1 (UniProt Q80XH1); details: uninfected cells cultured overnight; IP: BLOS1; parent: est. 100; read off a plot
Chain of UniProt Q80XH1 (Q80XH1 whole entry): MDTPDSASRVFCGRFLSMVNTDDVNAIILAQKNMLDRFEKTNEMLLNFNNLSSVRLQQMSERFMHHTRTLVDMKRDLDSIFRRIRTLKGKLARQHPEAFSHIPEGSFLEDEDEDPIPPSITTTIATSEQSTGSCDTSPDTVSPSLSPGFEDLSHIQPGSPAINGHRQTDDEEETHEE

Chain of UniProt Q9Z266 (Q9Z266 whole entry): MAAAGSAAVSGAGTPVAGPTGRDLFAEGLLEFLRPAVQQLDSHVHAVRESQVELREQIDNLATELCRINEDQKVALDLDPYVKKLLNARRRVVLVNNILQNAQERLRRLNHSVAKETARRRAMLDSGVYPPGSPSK
Chain of UniProt Q9CWG9 (Q9CWG9 whole entry): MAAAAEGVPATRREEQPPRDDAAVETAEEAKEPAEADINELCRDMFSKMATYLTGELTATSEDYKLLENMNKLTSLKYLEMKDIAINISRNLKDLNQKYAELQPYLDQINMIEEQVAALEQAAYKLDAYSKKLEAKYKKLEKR
Chain of UniProt Q9R0C0 (Q9R0C0 whole entry): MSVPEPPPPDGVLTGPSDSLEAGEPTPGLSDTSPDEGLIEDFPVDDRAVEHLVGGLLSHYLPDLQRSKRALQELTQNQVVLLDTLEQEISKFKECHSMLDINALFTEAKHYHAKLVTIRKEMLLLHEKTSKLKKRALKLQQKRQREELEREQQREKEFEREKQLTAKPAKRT

## BLOS1 [biogenesis of lysosome-related organelles complex-1 (BLOC-1) subunit 1] (from UniProt O55102) mBloc1s1 (first XAT hexapeptide-repeat motif EALDVH changed to EVVDH or EVDH)
PALLIDIN
  percent of parent: 22%
SNAPIN; parent: est. 0.67
  response: 0.07
SNAPIN; parent: est. 1.0
  response: 0.18
SNAPIN; uninfected cells cultured overnight, IP: BLOS1, parent: est. 100
  percent of parent: 10%
BLOS2
  percent of parent: 5%
KXD1
  percent of parent: 10%
